These results are taken from publication PMC6165198.

In experiment [1] the target is fused glucose-6-phosphate dehydrogenase::6-phosphogluconolactonase (G6PD::6PGL) protein from Giardia lamblia (Giardia lamblia).
Experiment [2] shares this target. Briefly: SEC; Shodex Protein KW-802.5 column, 50 mM Tris buffer pH 8.75, protein incubated 2 h at 37 °C with either 0.45 M or no Gdn-HCl, flow 0.5 mL/min, calibrated with Bio-Rad standards.
Experiment [3] shares this target. Kind of experiment: SEC; Sephacryl 100 (16/60) gel filtration column, 50 mM Tris buffer pH 7.85, flow 0.5 mL/min, calibrated with Bio-Rad gel filtration standards; oligomeric state from the elution volume. Background: In gel filtration, larger molecules generally elute earlier.

As usually defined, the stoichiometry N is a count of units in the complex or per binding partner. On to “fused glucose-6-phosphate dehydrogenase::6-phosphogluconolactonase (G6PD::6PGL) protein from Giardia lamblia (enzyme)”, for which, in experiment [1], the residual G6PD activity after incubation of the enzyme at 0 to 100 µg/mL for 2 h at 37 °C (stability to dilution) turned out to be 100%. In addition, the stoichiometry N in experiment [2] and in experiment [3] was 2 throughout.
